Positions count from the first letter of the chain named.

As usually defined, the Kd is the free concentration of one partner at which half of the binding sites on the other are occupied at equilibrium, for simple one-to-one binding. What is called koff is a measure of how fast the partners let go of each other. As usually defined, the kon is the second-order rate constant of association. As a reminder, the EC50 is the concentration needed to bring the measured effect to its halfway point. A lower EC50 goes with greater potency.

Assay [1] addresses T1, MUC1-ECD (human, UniProt P15941 1098-1155).
T1 construct: also called Ag MUC1-ECD; Antigen MUC1-ECD
T1 sequence: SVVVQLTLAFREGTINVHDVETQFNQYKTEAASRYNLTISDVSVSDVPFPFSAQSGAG
The assay is described as follows: SPR Biacore T200, antibody on chip, MUC1-ECD analyte, 1:1 fit.

The next assay deals with T2, WT p58/p62 heterodimer (human, UniProt P15941 1036-1097, limits assumed).
T2 construct: domain: 62 amino acid region (p62) of the SEA domain; Construct limits and tags are not described; also called p62/p58 heterodimer; WT protein
T2 sequence 1: T1 sequence
T2 sequence 2: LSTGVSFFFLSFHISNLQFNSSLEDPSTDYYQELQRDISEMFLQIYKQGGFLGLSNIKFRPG
The assay is described as follows: left panel, Absorbance against Concentration (nM). The panel does not name the target. The axis points to the ELISA on WT p58/p62 of the legend, while the legend's first sentence speaks of MFI on HCT116 cells. (In general: ELISA stands for enzyme-linked immunosorbent assay.)

Assay [2] addresses T1, MUC1-ECD. The assay is described as follows: SPR (Biacore), 1:1 fit; panel 'GO-702h'; analyte cell empty, antigen at 1.875-60 nM by the legend; same numbers as Table 7 prints for VH5 + VL3. (In general: In SPR one partner is held on a chip, and binding of the other changes the refractive index at the surface.)

B1: VH5 + VL2 (antibody, V domains shown)
VH: EVQLVQSGAEVKKPGESLKISCKGSGYAFSNFWMNWVRQMPGKGLEWMGQIYPGDGDTNYNGKFKGQVTISADKSISTAYLQWSSLKASDTAMYYCARSYYRSAWFAYWGQGTLVTVSL
VL: EIVMTQSPATLSVSPGERATLSCRASQSIGTSIHWYQQKPGQAPRLLIYYASESISGIPARFSGSGSGTEFTLTISSLQSEDFAVYYCQQSNNWPLTFGGGTKVEIK
In the assay with MUC1-ECD [1], B1 gave a dissociation constant (Kd) of 2.75 nM, a koff of 0.00125 s⁻¹ and an on-rate constant (kon) of 455000 M⁻¹ s⁻¹.

B2: VH2 + VL3 (antibody, V domains shown)
VH: QVQLVQSGAEVKKPGASVKVSCKASGYAFSNFWMNWVRQAPGQGLEWMGQIYPGDGDTNYNGKFKGRVTMTRDTSTSTVYMELSSLRSEDTAVYYCARSYYRSAWFAYWGQGTLVTVSS
VL: B1 VL with M4L, V13L, E70D, Q79E, S80P
In the assay with MUC1-ECD [1], B2 had a Kd of 3.6 nM, a koff of 0.00145 s⁻¹ and a kon of 404000 M⁻¹ s⁻¹.

B3: VH1 + VL3 (antibody, V domains shown)
VH: B2 VH with A16S, M70I, R72A, T74K, V79A
VL: B1 VL with M4L, V13L, E70D, Q79E, S80P
As for B3, in the assay with MUC1-ECD [1], binding was put at a Kd of 5.23 nM, the koff amounted to 0.00222 s⁻¹ and the on-rate (kon) amounted to 425000 M⁻¹ s⁻¹.

B4: VH1 + VL4 (antibody, V domains shown)
VH: B2 VH with A16S, M70I, R72A, T74K, V79A
VL: AIQLTQSPSSLSASVGDRVTITCRASQSIGTSIHWYQQKPGKAPKLLIYYASESISGVPSRFSGSGSGTDFTLTISSLQPEDFATYYCQQSNNWPLTFGGGTKVEIK
In the assay with MUC1-ECD [1], B4 showed a Kd of 7.13 nM, a koff of 0.00315 s⁻¹ and a kon of 442000 M⁻¹ s⁻¹.

B5: VH5 + VL3 (antibody, human IgG1, kappa, V domains shown)
VH: EVQLVQSGAEVKKPGESLKISCKGSGFTFNYFWIEWVRQMPGKGLEWMGEILPGTGSTNYNEKFKGQVTISADKSISTAYLQWSSLKASDTAMYYCARYDYTSSMDYWGQGTLVTVSS
VL: EIVLTQSPATLSLSPGERATLSCRASESVQYSGTSLMHWYQQKPGQAPRLLIYGASNVETGIPARFSGSGSGTDFTLTISSLEPEDFAVYYCQQNWKVPWTFGQGTKVEIKR
notes: Full-length humanized IgG expressed in HEK293 and purified on protein A. Constant regions not specified; also called #23 (inferred from 5x5 numbering)
In the assay with MUC1-ECD [1], B5 had a Kd of 1.55 nM, a koff of 0.000844 s⁻¹ and an on-rate (kon) of 545000 M⁻¹ s⁻¹.

B6: GO-702m (antibody, V domains shown)
VH: QVQLQQSGAELMKPGASVKISCKAIGFTFNYFWIEWVKQRPGHGLEWIGEILPGTGSTNYNEKFKGKAIFTADTSSNTAYMQLRSLTSEDSAVYYCVRYDYTSSMDYWGQGTSVTVSS
VL: DIVLTQSPGSLAVSLGQSVTISCRASESVQYSGTSLMHWYQQKPGQPPKLLIYGASNVETGVPARFSGSGSGTDFSLNIHPVEEDDIAMYFCQQNWKVPWTFGGGTKLEIK
notes: Mouse monoclonal antibody, detected with anti-mouse IgG kappa
On to B6, for which, in the assay with WT p58/p62 heterodimer, a half-maximal response (EC50) required 0.6 nM.

B7: GO-702h wild-type (antibody)
heavy: not shown
light: EIVLTQSPATLSLSPGERATLSCRASESVQYSGTSLMHWYQQKPGQAPRLLIYGASNVETGIPARFSGSGSGTDFTLTISSLEPEDFAVYYCQQNWKVPWTFGQGTKVEIKRTVAAPSVFIFPPSDEQLKSGTASVVCLLNNFYPREAKVQWKVDNALQSGNSQESVTEQDSKDSTYSLSSTLTLSKADYEKHKVYACEVTHQGLSSPVTKSFNRGEC
notes: copies: 2 + 2
With B7, in the assay with MUC1-ECD [2], the equilibrium dissociation constant (Kd) was 1.55 nM, the koff is 0.000844 s⁻¹ and the association rate constant (kon) worked out at 545000 M⁻¹ s⁻¹.

Source of the values: US20230265208A1 (Dana-Farber, published 2023).
